{
  "source": "paper PMC7864924",
  "about": "“Structures of active-state orexin receptor 2 rationalize peptide and small-molecule agonist recognition and receptor activation” (Nature Communications, 2021)",
  "binders": {"B1": {"name": "1 (VHH)", "VHH": "QVQLVESGGGSVQAGGSLRLSCAASGWIQTITYLGWFRQAPGKEREGVAALVTNEGNTYYADSVKGRFTVSLDNAKNTVYLQMNSLKPEDTALYYCAAASWGFVTPLWYYYTYWGQGTQVTVS"}, "B2": {"name": "2 (VHH)", "VHH": "QVQLVESGGGLVQAGGSLRLSCAASGFPVYRAFMAWYRQAPGKEREWVAAIHSTGWWTHYADSVKGRFTISRDNAKNTVYLQMNSLKPEDTAVYYCHVWVGYTYIGQGTQVTVS"}, "B3": {"name": "3 (VHH)", "VHH": "QVQLVESGGGLVQAGGSLRLSCAASGFPVNWKSMAWYRQAPGKEREWVAAISSFGWYTEYADSVKGRFTISRDNAKNTVYLQMNSLKPEDTAVYYCWVKVGATYYGQGTQVTVS"}, "B4": {"name": "4 (VHH)", "VHH": "QVQLVESGGGSVQAGGSLRLSCAASGAINHIWYLGWFRQAPGKEREGVAALYTWTGWTYYADSVKGRFTVSLDNAKNTVYLQMNSLKPEDTALYYCAAAYFGFASPLRARRYEYWGQGTQVTVS"}, "B5": {"name": "5 (VHH)", "VHH": "QVQLVESGGGSVQAGGSLRLSCAASGYISGIEYLGWFRQAPGKEREGVAALYTFEGTTYYADSVKGRFTVSLDNAKNTVYLQMNSLKPEDTALYYCAAAKYGEWGPLWFHEYWYWGQGTQVTVS"}, "B6": {"name": "6 (VHH)", "VHH": "QVQLVESGGGSVQAGGSLRLSCAASGNISAIGYLGWFRQAPGKEREGVAALVTWFGKTYYADSVKGRFTVSLDNAKNTVYLQMNSLKPEDTALYYCAAATYGNKNPLTDSYYSYWGQGTQVTVS"}, "B7": {"name": "8 (VHH)", "VHH": "QVQLVESGGGLVQAGGSLRLSCAASGFPVKHREMYWYRQAPGKEREWVAAIVSKGNVTEYADSVKGRFTISRDNAKNTVYLQMNSLKPEDTAVYYCNVKDYGWWNAHYDYWGQGTQVTVS"}, "B8": {"name": "9 (VHH)", "VHH": "QVQLVESGGGLVQAGGSLRLSCAASGFPVKQHHMYWYRQAPGKEREWVAAIESGGKETRYADSVKGRFTISRDNAKNTVYLQMNSLKPEDTAVYYCNVKDWGWWWTNYDYWGQGTQVTVS"}, "B9": {"name": "10 (VHH)", "VHH": "QVQLVESGGGLVQAGGSLRLSCAASGFPVETRHMYWYRQAPGKEREWVAAIQSEGYLTHYADSVKGRFTISRDNAKNTVYLQMNSLKPEDTAVYYCNVKDIGWLWVHYDYWGQGTQVTVS"}, "B10": {"name": "11 (VHH)", "VHH": "B7 VHH with K30A, Y35F, V52T, N56S, V57Q, E59A, N105T, H107V"}, "B11": {"name": "12 (VHH)", "VHH": "B8 VHH with K30Y, Q31T, H32A, H33Y, G54Q, K56Q, E57H, R59I, T106L"}, "B12": {"name": "14 (VHH)", "VHH": "B7 VHH with E33H, V52A, K54N, N56H, V57R, W103F, W104Y, N105L, A106W"}, "B13": {"name": "16 (VHH)", "VHH": "B8 VHH with K30A, Q31R, H32W, E52N, G54T, K56D, E57M, R59L, W104Y, T106V"}, "B14": {"name": "17 (VHH)", "VHH": "B8 VHH with K30V, Q31G, H32W, E52N, G54S, E57K, R59L, W101A, W104F, T106Y"}, "B15": {"name": "18 (VHH)", "VHH": "QVQLVESGGGLVQAGGSLRLSCAASGFPVNTAHMYWYRQAPGKEREWVAAIASSGDMTLYADSVKGRFTISRDNAKNTVYLQMNSLKPEDTAVYYCNVKDWGWWYVAYDYWGQGTQVTVS"}, "B16": {"name": "19 (VHH)", "VHH": "QVQLVESGGGLVQAGGSLRLSCAASGFPVMENTMYWYRQAPGKEREWVAAIDSYGYYTYYADSVKGRFTISRDNAKNTVYLQMNSLKPEDTAVYYCNVKDVGDHWWFYDYWGQGTQVTVS"}, "B17": {"name": "20 (VHH)", "VHH": "QVQLVESGGGLVQAGGSLRLSCAASGFPVKTNKMAWYRQAPGKEREWVAAITSYGSWTVYADSVKGRFTISRDNAKNTVYLQMNSLKPEDTAVYYCAVWVGALYIGQGTQVTVS"}, "B18": {"name": "21 (VHH)", "VHH": "B3 VHH with N30K, S33T, F54W, W56L, W97L, K99Q, A102V, Y105H, Q107H"}, "B19": {"name": "22 (VHH)", "VHH": "QVQLVESGGGLVQAGGSLRLSCAASGFPVYKHTMYWYRQAPGKEREWVAAINSTGAETAYADSVKGRFTISRDNAKNTVYLQMNSLKPEDTAVYYCEVYVGWFYHGQGTQVTVS"}, "B20": {"name": "23 (VHH)", "VHH": "B3 VHH with N30V, S33Q, F54W, K87N, W97F, A102D, T103G, Y105T"}, "B21": {"name": "24 (VHH)", "VHH": "B19 VHH with Y30D, K31A, H32Y, T33V, N52A, T54Q, A56H, E57P, S63P, W102Y"}, "B22": {"name": "25 (VHH)", "VHH": "B19 VHH with Y30N, K31N, T33V, N52S, T54Q, W102Y"}, "B23": {"name": "26 (VHH)", "VHH": "B19 VHH with Y30A, K31H, H32F, T33V, N52S, A56Y, E57N, W102Y"}, "B24": {"name": "27 (VHH)", "VHH": "QVQLVESGGGLVQAGGSLRLSCAASGFPVTTRSMYWYRQAPGKEREWVAAIASNGRLTAYADSVKGRFTISRDNAKNTVYLQMNSLEPEDTAVYYCEVFVGYYYHGQGTQVTVS"}, "B25": {"name": "28 (VHH)", "VHH": "B3 VHH with N30V, S33T, A35W, F54Y, K65N, W97A, K99L, A102Y, Y105E"}, "B26": {"name": "29 (VHH)", "VHH": "B3 VHH with N30K, S33T, F54W, W56L, T91S, W97Y, K99G, T103G, Y105R"}},
  "biological_target": "engineered OX2R carrying an additional amino-terminal Avi-tag, biotinylated (Homo sapiens, UniProt O43614, residues V261–A291 deleted, biotin on the Avi-tag (BirA biotin-protein ligase))",
  "sequence (O43614 other isoform, or with tags, fused parts or gaps residues V261–A291 deleted | residues V261–A291 deleted)": "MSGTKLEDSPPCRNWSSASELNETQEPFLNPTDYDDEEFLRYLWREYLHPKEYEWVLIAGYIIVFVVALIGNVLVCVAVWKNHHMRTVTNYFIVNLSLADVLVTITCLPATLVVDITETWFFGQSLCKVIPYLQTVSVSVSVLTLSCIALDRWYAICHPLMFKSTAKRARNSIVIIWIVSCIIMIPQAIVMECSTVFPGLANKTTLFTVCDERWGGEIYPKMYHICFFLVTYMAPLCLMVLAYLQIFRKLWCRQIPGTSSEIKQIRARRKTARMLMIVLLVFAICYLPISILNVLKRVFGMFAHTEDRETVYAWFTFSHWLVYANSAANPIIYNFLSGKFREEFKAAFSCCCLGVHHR",
  "note": "Substitutions are numbered along the chain they refer to.",
  "data": [
    {"binder": "B1", "values": [
      {"measurement": "binding result", "result": "binds"}
    ]},
    {"binder": "B2", "values": [
      {"measurement": "binding result", "result": "binds"}
    ]},
    {"binder": "B3", "values": [
      {"measurement": "binding result", "result": "binds"}
    ]},
    {"binder": "B4", "values": [
      {"measurement": "binding result", "result": "binds"}
    ]},
    {"binder": "B5", "values": [
      {"measurement": "binding result", "result": "binds"}
    ]},
    {"binder": "B6", "values": [
      {"measurement": "binding result", "result": "binds"}
    ]},
    {"binder": "B7", "values": [
      {"measurement": "binding result", "result": "binds"}
    ]},
    {"binder": "B8", "values": [
      {"measurement": "binding result", "result": "binds"}
    ]},
    {"binder": "B9", "values": [
      {"measurement": "binding result", "result": "binds"}
    ]},
    {"binder": "B10", "values": [
      {"measurement": "binding result", "result": "binds"}
    ]},
    {"binder": "B11", "values": [
      {"measurement": "binding result", "result": "binds"}
    ]},
    {"binder": "B12", "values": [
      {"measurement": "binding result", "result": "binds"}
    ]},
    {"binder": "B13", "values": [
      {"measurement": "binding result", "result": "binds"}
    ]},
    {"binder": "B14", "values": [
      {"measurement": "binding result", "result": "binds"}
    ]},
    {"binder": "B15", "values": [
      {"measurement": "binding result", "result": "binds"}
    ]},
    {"binder": "B16", "values": [
      {"measurement": "binding result", "result": "binds"}
    ]},
    {"binder": "B17", "values": [
      {"measurement": "binding result", "result": "binds"}
    ]},
    {"binder": "B18", "values": [
      {"measurement": "binding result", "result": "binds"}
    ]},
    {"binder": "B19", "values": [
      {"measurement": "binding result", "result": "binds"}
    ]},
    {"binder": "B20", "values": [
      {"measurement": "binding result", "result": "binds"}
    ]},
    {"binder": "B21", "values": [
      {"measurement": "binding result", "result": "binds"}
    ]},
    {"binder": "B22", "values": [
      {"measurement": "binding result", "result": "binds"}
    ]},
    {"binder": "B23", "values": [
      {"measurement": "binding result", "result": "binds"}
    ]},
    {"binder": "B24", "values": [
      {"measurement": "binding result", "result": "binds"}
    ]},
    {"binder": "B25", "values": [
      {"measurement": "binding result", "result": "binds"}
    ]},
    {"binder": "B26", "values": [
      {"measurement": "binding result", "result": "binds"}
    ]}
  ]
}
